Measured values published in patent publication US20240317834A1, “COMPOSITIONS AND METHODS FOR NEUROLOGICAL DISEASES” (CODA BIOTHERAPEUTICS, INC., priority 2020, published 2024).

What was measured:
Lenti-X 293T cells = assay: YFP fluorescence quenching anion reporter plate reader assay of engineered receptors stimulated with acetylcholine or a non-native ligand; format: cell-based
How it was run: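 Lenti-X 293T cells carrying a YFP anion reporter were transiently transfected with channel DNA and assayed the next day in HEPES-buffered ECS at pH 7.2. Ligand (acetylcholine or non-native ligand) was added in NaI-substituted ECS. Percent quench was the mean of the last 10 s relative to the 15 s pre-addition baseline.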

rat DRG neurons = assay: Rheobase shift and evoked action potentials in rat DRG neurons (current clamp); format: cell-based
Procedure: Using whole cell manual patch clamp electrophysiology in HEK293 cells, rat DRG neurons and rat hippocampal neurons, the EC50 of the various engineered receptors disclosed herein to Ach and non-native ligands was measured using the Hill equation with peak current measurements from escalating doses of ligand. The rheobase shift was also measured in rat DRG neurons, which reflects the efficacy of the receptors. To calculate the rheobase, first, the amount of current that can produce an action potential was determined. Then the ligand was added, followed by a step wise increase in the current injected up to 700 pA.
For manual patch clamp experiments, Cells plated on coverslips were visualized at 10× and 40× on an inverted fluorescence microscope (Olympus). Recordings were made with an Axopatch 200B amplifier and Digidata 1550B (Molecular Devices) at RT using 3-6 MOhm glass patch electrodes (Sutter, BF150-86-10). Unless otherwise stated, recordings were made in extracellular solution (ECS) containing: 140 mM sodium chloride, 4 mM potassium chloride, 1 mM magnesium chloride, 2 mM calcium chloride, 10 mM HEPES, and 10 mM D-(+)-glucose (pH=7.3 with sodium hydroxide, osmolarity=305−315 mOsm). An 8-line reservoir (AutoMate Scientific) in combination with an 8-channel zero-dead-volume perfusion pencil (AutoMate Scientific) was used for perfusion. Data was acquired using pClamp software (Molecular Devices). Traces were either analyzed in Clampfit (Molecular Devices) or using custom Python code. Plotting and statistics were performed in GraphPad Prism.
DRG rheobase experiments were performed in current clamp mode using a potassium-based internal solution containing: 100 mM potassium D-gluconate, 28 mM potassium chloride, 1 mM magnesium chloride hexahydrate, 5 mM magnesium ATP, 10 mM HEPES, and 0.5 mM EGTA (pH=7.2 with potassium hydroxide, osmolarity=290-295 mOsm, calculated liquid junction potential=−13.5 mV). To measure DRG input resistance and rheobase, 500 ms current steps (−200 pA to 700 pA) were applied the membrane in the presence and absence of a compound. No holding current was applied to the membrane for cells included in the final datasets. Data were acquired at 10 kHz, with Bessel filter at 2 kHz and series resistance compensation at 100%. Rheobase was defined as the smallest depolarizing current injection required to cause an action potential to fire in the cell. In a subset of cells, the rheobase was ambiguous, since the action potential appeared to be graded in amplitude. In these cases, a […] of the trace clarified the rheobase. Input resistance was measured from the negative current injections, calculated as the difference in membrane potential at steady state divided by the current injection amplitude and then averaged across the four negative current steps for each recording. Resting membrane potential was measured from the first 100 ms of each sweep, averaged for each recording, and corrected for liquid junction potential. One-way ANOVA with multiple comparisons was used to test for significance of difference in rheobase and input resistance between baseline, drug, and wash conditions.

B1: CODA1027: engineered chimeric LGIC receptor, R101F, L131D in SEQ ID NO: 33 (protein)
chain: MRCSPGGVWLALAASLLHVSLQGEFQRKLYKELVKNYNPLERPVANDSQPLTVYFSLSLLQIMDVDEKNQVLTTNIWLQMSWTDHYLQWNVSEYPGVKTVFFPDGQIWKPDILLYNSADERFDATFHTNVDVNSSGHCQYLPPGIFKSSCPMDLKNFPMDVQTCKLKFGSWSYGGWSLDLQMQEADISGYIPNGEWDLVGIPGKRSERFYECCKEPYPDVTFTVTMRRRMGYYLIQMYIPSLLIVILSWISFWINMDAAPARVGLGITTVLTMTTQSSGSRASLPKVSYVKAIDIWMAVCLLFVFSALLEYAAVNFVSRQHKELLRFRRKRRHHKSPMLNLFQEDEAGEGRFNFSAYGMGPACLQAKDGISVKGANNSNTTNPPPAPSKSPEEMRKLFIQRAKKIDKISRIGFPMAFLIFNMFYWIIYKIVRREDVHNQ
modifications: synthetic sequence of chimeric LGIC
For B1, the “YFP fluorescence quenching using CNL001” value (Lenti-X 293T cells; 1 nM CNL001, first column) was 24.049%, the “YFP fluorescence quenching using CNL001” value (Lenti-X 293T cells; 1 nM CNL001, second column) was 36.755% and the “YFP fluorescence quenching using TC-5619/Bradanicline” value (Lenti-X 293T cells; 1 nM brd) was −10.07%. For the same molecule, the “YFP fluorescence quenching using TC-5619/Bradanicline” value (Lenti-X 293T cells; 3 nM brd) was −0.8%, the “YFP fluorescence quenching using Varenicline” value (Lenti-X 293T cells; 3 nM var, first column) was −3.367 and the “YFP fluorescence quenching using Varenicline” value (Lenti-X 293T cells; 3 nM var, second column) was −0.431. The “YFP fluorescence quenching using CNL001” value (Lenti-X 293T cells; 10 nM CNL001, first column) was 52.927%, the “YFP fluorescence quenching using CNL001” value (Lenti-X 293T cells; 10 nM CNL001, second column) was 61.449% and the “YFP fluorescence quenching using TC-5619/Bradanicline” value (Lenti-X 293T cells; 10 nM brd) was 1.74%. For the same molecule, the “YFP fluorescence quenching using TC-5619/Bradanicline” value (Lenti-X 293T cells; 30 nM brd) was 53.95%, the “YFP fluorescence quenching using Facinicline” value (Lenti-X 293T cells; 30 nM fac) was −10.05 and the “YFP fluorescence quenching using Varenicline” value (Lenti-X 293T cells; 30 nM var, first column) was −0.761. The “YFP fluorescence quenching using Varenicline” value (Lenti-X 293T cells; 30 nM var, second column) was 2.989, the “YFP fluorescence quenching using CNL001” value (Lenti-X 293T cells; 50 nM CNL001, first column) was 67.308% and the “YFP fluorescence quenching using CNL001” value (Lenti-X 293T cells; 50 nM CNL001, second column) was 68.77%. The “YFP fluorescence quenching using ABT-126” value (Lenti-X 293T cells; 50 nM abt) was −11.89%, the “YFP fluorescence quenching using CNL001” value (Lenti-X 293T cells; 100 nM CNL001, first column) was 69.049% and the “YFP fluorescence quenching using CNL001” value (Lenti-X 293T cells; 100 nM CNL001, second column) was 71.613%. The “YFP fluorescence quenching using CNL002” value (Lenti-X 293T cells; 100 nM CNL002) was 7.75%, the “YFP fluorescence quenching using ABT-126” value (Lenti-X 293T cells; 100 nM abt) was −16.07% and the “YFP fluorescence quenching using AZD-0328” value (Lenti-X 293T cells; 100 nM azd0328) was −4.76%. For the same molecule, the “YFP fluorescence quenching using ABT-126” value (Lenti-X 293T cells; 300 nM abt) was −11.21%, the “YFP fluorescence quenching using AZD-0328” value (Lenti-X 293T cells; 300 nM azd0328) was −7.52% and the “YFP fluorescence quenching using TC-5619/Bradanicline” value (Lenti-X 293T cells; 300 nM brd) was 76.74%. For the same molecule, the “YFP fluorescence quenching using Facinicline” value (Lenti-X 293T cells; 300 nM fac) was −12.54, the “YFP fluorescence quenching using Varenicline” value (Lenti-X 293T cells; 300 nM var, first column) was 2.966 and the “YFP fluorescence quenching using Varenicline” value (Lenti-X 293T cells; 300 nM var, second column) was 10.211. For the same molecule, the “YFP fluorescence quenching using Varenicline” value (Lenti-X 293T cells; 500 nM var, first column) was 15.278, the “YFP fluorescence quenching using Varenicline” value (Lenti-X 293T cells; 500 nM var, second column) was 20.84 and the “YFP fluorescence quenching using CNL001” value (Lenti-X 293T cells; 1 uM CNL001, first column) was 71.811%. The “YFP fluorescence quenching using CNL001” value (Lenti-X 293T cells; 1 uM CNL001, second column) was 69.907%, the “YFP fluorescence quenching using CNL002” value (Lenti-X 293T cells; 1 uM CNL002) was 61.97% and the “YFP fluorescence quenching using ABT-126” value (Lenti-X 293T cells; 1 uM abt) was −9.38%. For the same molecule, the “YFP fluorescence quenching using TC-6987” value (Lenti-X 293T cells; 1 uM tc6987) was 0.88, the “YFP fluorescence quenching using Varenicline” value (Lenti-X 293T cells; 1 uM var, first column) was 37.104 and the “YFP fluorescence quenching using Varenicline” value (Lenti-X 293T cells; 1 uM var, second column) was 42.439. For the same molecule, the “YFP fluorescence quenching using TC-6987” value (Lenti-X 293T cells; 10 uM tc6987) was 56.27, the “YFP fluorescence quenching using CNL002” value (Lenti-X 293T cells; 30 uM CNL002) was 65.77% and the “YFP fluorescence quenching using AZD-0328” value (Lenti-X 293T cells; 30 uM azd0328) was 74.9%. The “YFP fluorescence quenching using Facinicline” value (Lenti-X 293T cells; 30 uM fac) was 70.96, the “YFP fluorescence quenching using TC-6987” value (Lenti-X 293T cells; 500 uM tc6987) was 71.3 and the “percent quench of YFP fluorescence, 30 nM TC-6683” value (Lenti-X 293T cells; TC-6683 30 nM) was 1.189%. For the same molecule, the “percent quench of YFP fluorescence, 300 nM TC-6683” value (Lenti-X 293T cells; TC-6683 300 nM) was 0.939%, the “percent quench of YFP fluorescence, 3 uM TC-6683” value (Lenti-X 293T cells; TC-6683 3 uM) was 1.327% and the “percent quench of YFP fluorescence, 30 uM TC-6683” value (Lenti-X 293T cells; TC-6683 30 uM) was −0.845%. The “percent quench of YFP fluorescence, 100 uM TC-6683” value (Lenti-X 293T cells; TC-6683 100 uM) was −3.136%, the “percent quench of YFP fluorescence, 10 uM ach” value (Lenti-X 293T cells; acetylcholine 10 uM) was −1.62% and the “percent quench of YFP fluorescence, 50 uM ach” value (Lenti-X 293T cells; acetylcholine 50 uM) was −1.6%. For the same molecule, the “percent quench of YFP fluorescence, 100 uM ach” value (Lenti-X 293T cells; acetylcholine 100 uM) was −2.62%, the “percent quench of YFP fluorescence, 300 uM ach” value (Lenti-X 293T cells; acetylcholine 300 uM) was −6.12% and the “percent quench of YFP fluorescence, 500 uM ach” value (Lenti-X 293T cells; acetylcholine 500 uM) was −7.71%. For the same molecule, the “percent quench of YFP fluorescence, 1 mM ach” value (Lenti-X 293T cells; acetylcholine 1 mM) was −5.73%, the “percent quench of YFP fluorescence, 3 mM ach” value (Lenti-X 293T cells; acetylcholine 3 mM) was 33.69% and the “Rheobase Shift; Rat DRG Neurons, +TC-5619 @ EC90” value (rat DRG neurons; +TC-5619 @ EC90) was 638 ± 63 pA. For the same molecule, the “Rheobase Shift; Rat DRG Neurons, Baseline” value (rat DRG neurons; Baseline, no ligand) was 100 ± 23 pA.
